The source of these data is patent US20150191542A1 (INNATE PHARMA S A, published 2015).

Numbering of substitutions follows the chain as printed.

The target in experiment [1] is T1, MICA*004 expressed on C1R transfectant cells (human, UniProt Q29983 24-297, Glycosylated on cells; the letters do not carry this.).
T1 construct: also called C1R-MICA*004; C1R-MICA*04
T1 chain: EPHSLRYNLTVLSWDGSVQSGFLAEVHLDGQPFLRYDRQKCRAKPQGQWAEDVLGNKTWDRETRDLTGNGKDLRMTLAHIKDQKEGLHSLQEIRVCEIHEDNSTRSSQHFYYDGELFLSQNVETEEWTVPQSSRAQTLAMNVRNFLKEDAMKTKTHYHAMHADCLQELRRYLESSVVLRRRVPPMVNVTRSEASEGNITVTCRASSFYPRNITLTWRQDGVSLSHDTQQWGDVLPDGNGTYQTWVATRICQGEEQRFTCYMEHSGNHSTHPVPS
Put plainly: flow cytometry on C1R-MICA*004 cells, 3-parameter logistic fit. As for the experimental part: (§1) The binding of antibodies obtained from the first and second immunization series (including 9C10, 20C6 and 16A8) were tested for binding to MICA-expressing CR1 transfectant cells C1R-MICA*001, C1R-MICA*004, C1R-MICA*007 and C1R-MICA*008 (Pr. A. Steinle, Eberhard-Karls University Tuebingen, Germany) described in Salih et al. (2003) Blood 102(4): […]. Binding was analyzed by flow cytometry.
(§2) Cells were harvested and stained in PBS 1×/BSA 0,2%/EDTA 2 mM buffer during 30 minutes at 4° C. using a dose-range of the anti-MICA mAbs. After two washes in staining buffer, cells were stained for 30 min at 4° C. with goat anti-mouse (H+L)-PE polyclonal antibodies (1/200). After two washes, stainings were acquired on a BD FACS Canto II and analyzed using the FlowJo software.
(§3) Antibodies 9C10, 20C6 and 16A8 bound to each of the C1R-MICA*001, C1R-MICA*004, C1R-MICA*007 and C1R-MICA*008 cells (see FIGS. 3A, 3B and 3C for antibodies 9C10, 20C6 and 16A8 respectively). […] EC50 values are shown in Table C in μg/ml (calculated using a 3-parameter logistic fit).
Background: A flow cytometer gives signals particle by particle.

Experiment [2] has as its target T2, MICA*007 expressed on C1R transfectant cells (human, UniProt Q29983 24-297, Glycosylated on cells; the letters do not carry this.).
T2 construct: also called C1R-MICA*007; C1R-MICA*07
T2 chain: T1 chain with Y36C, V122L, V129M, E173K, S175G, R181T, S206G, R210W, T215S
Put plainly: flow cytometry on C1R-MICA*007 cells, 3-parameter logistic fit. The method, then: as §1, §2, §3

For experiment [3], the target named is T3, MICA*001 extracellular domain recombinant protein (full extracellular domain with a BirA or a Poly-His Tag) (human, UniProt Q29983 24-297).
T3 construct: it may be the same as MICA*001-His; also called MICA extracellular domain recombinant protein; not shown: BirA or poly-His tag
T3 sequence: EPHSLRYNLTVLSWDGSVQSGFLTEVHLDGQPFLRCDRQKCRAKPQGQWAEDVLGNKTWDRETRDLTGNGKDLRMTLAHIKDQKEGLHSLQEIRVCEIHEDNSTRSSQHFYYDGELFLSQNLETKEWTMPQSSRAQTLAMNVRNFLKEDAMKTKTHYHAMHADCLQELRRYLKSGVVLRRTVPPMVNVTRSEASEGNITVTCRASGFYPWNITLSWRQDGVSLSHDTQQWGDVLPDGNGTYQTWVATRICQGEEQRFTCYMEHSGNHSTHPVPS
Nature of the experiment: ELISA, 3 µg/ml recombinant protein coated. As for the experimental part:
3 μg/ml of the indicated MICA recombinant proteins were coated overnight in 96-well plates in PBS 1× at 4° C. All subsequent steps were performed at room temperature. After washes with PBS 1×/Tween 0.05%, plates were saturated for an additional 2 hours in PBS 1×/BSA 1%. Two additional washes were performed prior adding the tested anti-MICA mAb in PBS 1×/BSA 1% for 2 hours. Antibodies were washed and a horseradish peroxidase conjugated goat polyclonal anti-mouse IgG (GAM-HRP) in PBS 1×/BSA 1% was added for 1 hour. Final washing steps were performed and TMB substrate was added to reveal the ELISA (5 to 20 min in the dark) and 1M HCl was added to stop the enzymatic reaction. O.D. was measured at 450 nm.
9C10 binds to MICA extracellular domain recombinant-protein but not MICA extracellular domain α3 recombinant protein. Antibody 16A8, however, bound to both MICA extracellular domain recombinant protein […] MICA extracellular domain α3 recombinant protein. Therefore, it can be concluded from this ELISA experiment that the binding site on MICA of 9C10 antibodies includes the α1 and/or α2 domains while antibody 16A8 binds to MICA within the α3 domain. […] BAMO1 is a commercially available anti-MICA specific for α1α2 domain and BAMO3 is a commercially available anti-MICA specific for α3 domain.
In general terms: An ELISA detects its analyte on a solid surface through an enzyme-linked reagent.

In experiment [4] the target is T4, MICA*008 expressed on C1R transfectant cells (human, UniProt Q29983 24-297, Glycosylated on cells; the letters do not carry this.).
T4 construct: also called C1R-MICA*008; C1R-MICA*08
T4 chain: T1 chain with V122L, S175G, R181T, T213I, Q251R
Nature of the experiment: flow cytometry on C1R-MICA*008 cells, 3-parameter logistic fit. The method, then: as §1, §2, §3

B1: antibody 9C10 (antibody, V domains shown)
VH: QVQLQQPGAELVRPGTSVNLSCKASGYSFTRYWMNWVKQRPGQGLEWIGMIHPSDSETRLNQKFKDKATLTVDKSSSTAYMQLSSPTSEDSAVYYCGYGNFFYVMDYWGQGTSVTVSS
VL: DILLTQSPAILSVSPGERVSFSCRASQSIGTSIHWYQQRTNGSPRLLIKFASESISGIPSRFSGSGSGTDFTLNINSVESEDIADYYCQQSNFWPFTFGSGTKLEVK
modifications: Biotinylated when captured in the SPR assays (9C10-Biot); the sites are not given.
notes: Murine hybridoma antibody of IgG2b isotype as tested; also called 9C10-Biot
As usually defined, the EC50 is the concentration that produces a half-maximal response. Read a high EC50 as weaker potency. Take B1: the EC50 in experiment [1] came out at 0.2 µg/mL; in experiment [2] it was 7.93 µg/mL; in experiment [4], 0.15 µg/mL. Besides, in experiment [3], the binding result was “binds”.

B2: antibody 16A8 (antibody, V domains shown)
VH: EVQLVESGGGLVKPGGSLKLSCAASGFTFSRYAMSWVRQTPEKRLEWVATIFSGGSYTYYPDSVKGRFTISRDNANNTLYLQMSSLKAEDTAMYFCARPNWERTFDYWGQGTTLTVSS
VL: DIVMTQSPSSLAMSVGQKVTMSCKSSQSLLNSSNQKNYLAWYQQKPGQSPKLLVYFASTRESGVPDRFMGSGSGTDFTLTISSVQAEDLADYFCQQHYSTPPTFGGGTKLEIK
notes: Murine hybridoma antibody of IgG2a isotype as tested; also called 16A8-Biot
In the case of B2, the EC50 in experiment [1] was determined as 0.31 µg/mL; in experiment [2], 0.74 µg/mL; in experiment [4], 0.33 µg/mL. In addition, in experiment [3], the binding result is recorded as “binds”.
